Test results as given in the supplement of paper PMC10567573.

Assay: protein stability index of a GFP-peptide fusion (GPS, HEK-293T) (PSI 1-6); higher = more stable
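Also: lentivirally expressed fusions sorted by FACS into six bins by GFP to DsRed ratio, PSI derived from sequencing read proportions per bin multiplied by bin number.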

## RRQTSMTDFYHSKRRLIFSKRKP
parent: IOH5068_25, c terminus: native
  protein stability index: 2.54

## CHICHKKLYTGPGLAIHCMQVHKE
parent: IOH3584_7, c terminus: a fixed tail appended
  protein stability index: 3.29

## YQGGPPRPPMGMRPPVMSQGGRY
parent: IOH3584_75, c terminus: native
  protein stability index: 1.94

## FPSAGQAQAAVQGPVGTDFKPLNS
parent: IOH3584_46, c terminus: a fixed tail appended
  protein stability index: 3.51

## FTGRDSITCLTCQGTGYIPTEQVN
parent: IOH3247_8, c terminus: a fixed tail appended
  protein stability index: 1.83

## YNIATRRKALKNPSEEYGKILEVV [MLH1 WT]
parent: IOH3190_27, c terminus: a fixed tail appended
  protein stability index: 2.51

## PQVRDWSHYFKIIEDLRAQIFANT
parent: IOH2946_21, c terminus: a fixed tail appended
  protein stability index: 2.07

## NKLLLSIIILLELAILGGLVYYKF
parent: IOH5143_35, c terminus: a fixed tail appended
  protein stability index: 2.46

## FVKDPQGRIIAVFKPKNEEPYGHL [PI4K2A WT]
parent: IOH5080_24, c terminus: a fixed tail appended
  protein stability index: 1.76

## EAEEEELRAELTKVEEEIVTLRQV [TPD52L2 WT]
parent: IOH3163_8, c terminus: a fixed tail appended
  protein stability index: 4.06

## DLSRLVNCLTGEGEDTRLSASEMK [CIB1 WT]
parent: IOH3143_22, c terminus: a fixed tail appended
  protein stability index: 3.05

## GGYFKARLKFPIDYPYSPPAFRFL [CDC34 WT]
parent: IOH1870_10, c terminus: a fixed tail appended
  protein stability index: 2.41

## FPKKLAFAYLEDLHSEFDEQHGKK
parent: IOH3957_14, c terminus: a fixed tail appended
  protein stability index: 2.61

## TCADRDNLTRRFSDLGFEVKCFND [CASP6 WT]
parent: IOH3453_12, c terminus: a fixed tail appended
  protein stability index: 3.21

## NIVEYLIQEQPGQEQVAGGEAQPG
parent: IOH5115_39, c terminus: a fixed tail appended
  protein stability index: 4.27

## KKREKQREQMEQMKQRIAEENIMK
parent: IOH4655_4, c terminus: a fixed tail appended
  protein stability index: 4.67

## YDPDYIQCPYCQRRFNENAADRHI [FAM164A WT]
parent: IOH3371_20, c terminus: a fixed tail appended
  protein stability index: 4.12

## ANETLAEMEEELRYAPLSFRNPMM
parent: IOH5143_10, c terminus: a fixed tail appended
  protein stability index: 1.94

## YVTTNVSLIPPRSEQLVNFTGKAE
parent: IOH3247_29, c terminus: a fixed tail appended
  protein stability index: 1.77

## QMAKKAEAFQLYQEAAQLDMLLEK [FLOT1 WT]
parent: IOH4826_57, c terminus: a fixed tail appended
  protein stability index: 1.75

## AAGGVPGGGSNNGKTPVCHQCHKV [PDLIM7 WT]
parent: IOH4706_45, c terminus: a fixed tail appended
  protein stability index: 2.61

## RAQYDELARKNREELDKYWSQQIE
parent: IOH2946_43, c terminus: a fixed tail appended
  protein stability index: 3.04

## YTGPSSSGRFAGREWYYGNVTRHQ
parent: IOH4659_46, c terminus: a fixed tail appended
  protein stability index: 1.78

## RVKLISNKGTETDNDPSCVHPIIK
parent: IOH4271_36, c terminus: a fixed tail appended
  protein stability index: 4.06

## EAGGRFVAFSGEGQSLRKKGRKP [UFD1L WT]
parent: IOH4744_50, c terminus: native
  protein stability index: 1.91

## KSQDLAKIMADIRAQYDELARKNR
parent: IOH2946_41, c terminus: a fixed tail appended
  protein stability index: 2.6

## SRHLNSQVKKTTTRWCHIVRDSDS
parent: IOH4271_53, c terminus: a fixed tail appended
  protein stability index: 2.05

## AKQLFRKLNEQSPTRCTLEAGAMT
parent: IOH3957_7, c terminus: a fixed tail appended
  protein stability index: 2.07

## KALEILRKDFSELRSAGVEQLMYI
parent: IOH4655_39, c terminus: a fixed tail appended
  protein stability index: 2.56

## HIFPASRWEPYDPEKKWDKYTIR
parent: IOH4655_56, c terminus: native
  protein stability index: 2.29

## LEEALYEYQPLQIETYGPHVPELE
parent: IOH3100_41, c terminus: a fixed tail appended
  protein stability index: 2.7

## YQSKGYNDDYYEESYFTTRTYGEP [EMD WT]
parent: IOH4676_15, c terminus: a fixed tail appended
  protein stability index: 2.23

## SLREYNDFLEEVEEIVFNLTNNVD
parent: IOH3100_16, c terminus: a fixed tail appended
  protein stability index: 2

## THTKEQILELVVLEQFVAILPKEL
parent: IOH4871_15, c terminus: a fixed tail appended
  protein stability index: 2.8

## GRKRRQTSMTDFYHSKRRLIFSKR
parent: IOH5068_24, c terminus: a fixed tail appended
  protein stability index: 3.14

## YSLTTSSTHKRSSLRKVKLVRPPQ [RAB40B WT]
parent: IOH1937_41, c terminus: a fixed tail appended
  protein stability index: 2.95

## YGETCFPKGRFERKRNPSRKKQHI
parent: IOH4871_39, c terminus: a fixed tail appended
  protein stability index: 2.65

## PCCSSSPEEPLNGESYESCCPTSR
parent: IOH5115_46, c terminus: a fixed tail appended
  protein stability index: 3.71

## FGEDYYGPSRSRHRRRSRERGPYR [CLK3 WT]
parent: IOH4008_14, c terminus: a fixed tail appended
  protein stability index: 2.64

## YVERKNSLKKGSLVKNLKDTLGLG
parent: IOH4659_10, c terminus: a fixed tail appended
  protein stability index: 2.21

## FQPQPVQPQQGYIPPMAQPGLPPV
parent: IOH3584_22, c terminus: a fixed tail appended
  protein stability index: 3.18

## TVPEILVHNIVIFMRTSVKISYIG
parent: IOH3247_35, c terminus: a fixed tail appended
  protein stability index: 3.44

## FLAAEQDIREEIRKVVQSLEQTAR
parent: IOH3571_3, c terminus: a fixed tail appended
  protein stability index: 1.8

## EEEDLRRRLKYFFMSPCDKFRAKG [MCOLN1 WT]
parent: IOH4733_7, c terminus: a fixed tail appended
  protein stability index: 2.28

## PEAEENKQIIRKHAQTFVALCATD
parent: IOH1962_29, c terminus: a fixed tail appended
  protein stability index: 2.89

## LAPIHKLEEALYEYQPLQIETYGP
parent: IOH3100_40, c terminus: a fixed tail appended
  protein stability index: 1.96

## AFVVYLETETLVTREAVTEILGIE
parent: IOH3571_18, c terminus: a fixed tail appended
  protein stability index: 2.25

## IRRAYPDANLLNDRVLRAMLKAEE
parent: IOH1962_3, c terminus: a fixed tail appended
  protein stability index: 2.62

## RLVYKFGKNSSGWKEEEVLQSRN
parent: IOH4879_62, c terminus: native
  protein stability index: 2.04

## LSKEYWDCLEGKKSKHAPRGTHLW
parent: IOH4879_43, c terminus: a fixed tail appended
  protein stability index: 2.74

## FVELQGFLAAEQDIREEIRKVVQS
parent: IOH3571_2, c terminus: a fixed tail appended
  protein stability index: 2.08

## RVRSLETENRRLESKIREHLEKKG
parent: IOH2946_17, c terminus: a fixed tail appended
  protein stability index: 4.39

## SEQLVNFTGKAEMGGPFSYVYFFC
parent: IOH3247_31, c terminus: a fixed tail appended
  protein stability index: 2.53
